The values below come from patent US20030119096A1 (published 2003).

The target of experiment [1] is human GALR3 receptor (human) (UniProt O60755). Briefly: cell-based or functional assay.
In experiment [2] the target is rat GALR1 receptor (rat) (UniProt Q62805). Briefly: cell-based or functional assay.
The target in experiment [3] is rat GALR2 receptor (rat) (UniProt O08726). Briefly: cell-based or functional assay.
The target of experiment [4] is T1, rat GALR3 receptor (rat, UniProt O88626 1-370).
T1 construct: also called rGALR3; rGalR3
T1 sequence: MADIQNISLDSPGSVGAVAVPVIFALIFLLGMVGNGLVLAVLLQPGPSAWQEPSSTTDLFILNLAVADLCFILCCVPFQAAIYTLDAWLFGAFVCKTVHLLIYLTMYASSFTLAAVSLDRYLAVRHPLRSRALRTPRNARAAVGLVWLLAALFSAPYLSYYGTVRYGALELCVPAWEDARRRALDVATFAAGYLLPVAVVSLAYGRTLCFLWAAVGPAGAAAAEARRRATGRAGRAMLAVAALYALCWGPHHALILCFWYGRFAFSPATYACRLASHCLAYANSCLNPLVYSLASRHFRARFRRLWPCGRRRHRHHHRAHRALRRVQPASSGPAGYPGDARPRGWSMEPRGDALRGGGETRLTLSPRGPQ
Briefly: porcine 125I-galanin competition binding, 293 #105.

Chain of rat GALR1 receptor (rat) (Q62805 whole entry): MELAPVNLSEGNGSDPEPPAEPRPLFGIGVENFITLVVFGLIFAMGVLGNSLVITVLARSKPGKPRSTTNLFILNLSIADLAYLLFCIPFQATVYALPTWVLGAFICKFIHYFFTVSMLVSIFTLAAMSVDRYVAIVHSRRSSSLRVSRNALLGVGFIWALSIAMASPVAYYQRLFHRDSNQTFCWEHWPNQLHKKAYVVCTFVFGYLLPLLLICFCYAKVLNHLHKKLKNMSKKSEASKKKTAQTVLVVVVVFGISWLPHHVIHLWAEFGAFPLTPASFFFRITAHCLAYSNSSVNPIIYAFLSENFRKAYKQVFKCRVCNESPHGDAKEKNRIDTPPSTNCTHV
Chain of rat GALR2 receptor (rat) (O08726 whole entry): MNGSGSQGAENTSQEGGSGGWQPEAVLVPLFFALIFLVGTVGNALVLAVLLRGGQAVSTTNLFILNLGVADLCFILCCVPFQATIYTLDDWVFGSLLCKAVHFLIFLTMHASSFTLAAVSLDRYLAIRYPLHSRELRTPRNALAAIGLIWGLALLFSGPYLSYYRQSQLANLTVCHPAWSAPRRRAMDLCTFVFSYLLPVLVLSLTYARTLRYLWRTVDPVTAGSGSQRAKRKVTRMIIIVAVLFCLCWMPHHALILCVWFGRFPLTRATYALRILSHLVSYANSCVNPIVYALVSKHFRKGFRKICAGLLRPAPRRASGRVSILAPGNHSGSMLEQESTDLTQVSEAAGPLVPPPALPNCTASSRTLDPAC
Chain of human GALR3 receptor (human) (O60755 whole entry): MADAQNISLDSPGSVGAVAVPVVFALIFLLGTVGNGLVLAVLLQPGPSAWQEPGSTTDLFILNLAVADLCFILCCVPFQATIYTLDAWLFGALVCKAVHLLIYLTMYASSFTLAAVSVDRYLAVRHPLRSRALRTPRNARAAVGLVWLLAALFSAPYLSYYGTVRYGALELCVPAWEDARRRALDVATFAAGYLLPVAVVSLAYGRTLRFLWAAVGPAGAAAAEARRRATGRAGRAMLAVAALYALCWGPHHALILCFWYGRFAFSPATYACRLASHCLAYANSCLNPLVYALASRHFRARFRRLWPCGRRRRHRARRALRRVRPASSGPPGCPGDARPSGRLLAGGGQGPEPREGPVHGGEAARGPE

Molecule C7 (peptide) displayed an Oocyte EC50 for stimulation of GIRKs in experiment [1] of 343 nM. Further, in experiment [2], the EC50, cAMP, LM(tk-) was 0.52 nM. Moreover, the EC50, AA (arachidonic acid release), CHO #79 in experiment [3] was 2.41 nM.

B1: (-)9 to (+)29 galanin, porcine (peptide, UniProt P07480 24-61, looked up)
peptide: LGSPVKEKRGWTLNSAGYLLGPHAIDNHRSFHDKYGLA
notes: range -9 to +29; also called galanin -9 to +29
In experiment [4], B1 registered a Ki of 4.17 nM.
